The source of these data is publication PMC12567083, “N-terminal oligomerization drives HDAC4 nuclear condensation and neurodevelopmental dysfunction in Drosophila” (Open Biology, 2025).

The chains are these.
B1: HDAC4^N-WT (N-terminal fragment of Drosophila HDAC4, Pro37 to Gln143) (domain or fragment, UniProt Q9VYF3 37-143, looked up)
chain: PHPAVDIDQQIMELKKSQELQKQRLINSFQEQSKQMELEHKLQLEHKYQFAVNSHGAFQELRNESMVTAAAAAVAQEQHRQQLHQQQQQHQQQQQQQQHQQQQQQQQ
notes: Drosophila HDAC4 (DmHDAC4), translation of nucleotides 461-4216 of NCBI NM_132640; residues Pro37-Gln143, the region that corresponds to Ala62-Gln153 of human HDAC4; codon optimised for E. coli; Cloned in pET-15B in frame with the N-terminal 6x His tag; Which UniProt isoform equals the translation of NM_132640 is not known to me; also called wild-type N-terminal HDAC4
B2: HDAC4^N-S69F (domain or fragment, Drosophila, UniProt Q9VYF3 37-143, looked up)
chain: PHPAVDIDQQIMELKKSQELQKQRLINSFQEQFKQMELEHKLQLEHKYQFAVNSHGAFQELRNESMVTAAAAAVAQEQHRQQLHQQQQQHQQQQQQQQHQQQQQQQQ
notes: Drosophila HDAC4 (DmHDAC4), translation of nucleotides 461-4216 of NCBI NM_132640; residues Pro37-Gln143 with Ser69Phe; Made by mutagenesis of HDAC4^N-WT in pET-15B
B3: HDAC4^N-F65A (domain or fragment, Drosophila, UniProt Q9VYF3 37-143, looked up)
chain: PHPAVDIDQQIMELKKSQELQKQRLINSAQEQSKQMELEHKLQLEHKYQFAVNSHGAFQELRNESMVTAAAAAVAQEQHRQQLHQQQQQHQQQQQQQQHQQQQQQQQ
notes: Drosophila HDAC4 (DmHDAC4), translation of nucleotides 461-4216 of NCBI NM_132640; residues Pro37-Gln143 with Phe65Ala; Made by mutagenesis of HDAC4^N-WT in pET-15B

This series concerns the molecule itself. Kind of series: cross-linking; 0.5 mg/ml HDAC4^N in SEC buffer (30 mM HEPES pH 7.6, 150 mM NaCl) with 0.2 mM or 2.0 mM disuccinimidyl suberate (DSS), 30 min at room temperature, quenched with Tris; SDS-PAGE and colloidal Coomassie.
For B1, the binding result is “binds”.

In the case of B2, the binding result is given as “binds”.

In the case of B3, the binding result was “binds”.
